Data from the supplement of paper PMC9170038.

Test system: MS2 coat protein
Assay: apparent KD of MS2 coat protein; higher = weaker reporter binding
Conditions: Eterna round: R107
Protocol: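 RNA-MaP round R107: designed RNA switches with theophylline, tryptophan, arginine or FMN aptamers are transcribed on-chip within common flanks. They are titrated with SNAP-549-labelled MS2 coat protein in RNA-MaP buffer (100 mM Tris pH 7.5, 80 mM KCl, 4 mM MgCl2), without ligand or with the indicated ligand. Median apparent KD per design.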

[1] = input ligand: theophylline 20 uM
[2] = input ligand: theophylline 2 mM
[3] = input ligand: tryptophan 2.4 mM

Row | Sequence | apparent KD of MS2 coat protein (input ligand: arginine 13.2 mM) | apparent KD of MS2 coat protein [1] | apparent KD of MS2 coat protein [2] | apparent KD of MS2 coat protein (input ligand: none) | apparent KD of MS2 coat protein [3]
1 | AACAUGAGGAUCACCCAUGUCCCAUGUGAACGAGGACCGGUACGGCCGCCACUCGACUGAGGCGGCACAUGAGGAUCACCCACAU [whbob_SS_trypto A_2s12] | 151 nM | 207 nM | 269 nM |  | 
2 | AACAUGAGGAUCACCCAUGUUGUAAGGGAAGGAGCGCCUAAUCAGGCAGGUAGGUCGCCCAACAUGAGGAUCACCCAUGUUGUAU [Exclusion Arginine A 2] | 38.9 nM | 89.2 nM | 66.9 nM | 75.3 nM | 76.5 nM
3 | AACAUGAGGAUCUUCCUUAAGUGAACUGAAGGAGCGCCAGAUAUGGCAGGUAGGUCGCAGCGAACAUGAGGAUCACCCAUGUUAA [Arg A Ex t3] | 38.1 nM | 33.1 nM | 56 nM | 29.4 nM | 53.7 nM
4 | AACCGAGGCUAUCCACAAAGAAAAUGUGAUACCAGAAUAAUUUUAUUCCCUUGGCAGCAUGACAUGAGGAUCACCCAUGUGUCUU [SSTheo A #5] | 29.7 nM | 39.8 nM |  |  | 32.8 nM
5 | AACGUAUACAGAAGGAGCGUGAUUUAUAUUACUCAUUCAUAUACAUGAGGAUCACCCAUGUCACAGGUAGGUCGCUGUAUUCGUA [JR_ExcArginiB_Sub021] | 76 nM | 165 nM | 157 nM | 153 nM | 108 nM
6 | AAGAACCAGACGGCCGCCACUGGCCAGACAGGGUUCAUGGAAACAUGAGGAUCACCCAUGUCUUCCAGGACCGGGUCUGAAGAGG [Esbiisin] | 8.61 nM | 9.86 nM | 9.33 nM | 8.56 nM | 11.3 nM
7 | AAGACAUGAGGAUCACCCAUGUCGUGUGAACGAGGACCGGUACGGCCGCCACUCGUUUGAAAAUAAACGAAUGCGGCCUGGGAAA [Exclusion Tryp A GF1] | 11.1 nM | 13.4 nM | 12.3 nM |  | 
8 | AAGACCAGGAGGUGAUCCUAACUGGUCCAACGAGGACCGGUACGGCCGCCACUCGAAUAAACAUGAGGAUCACCCAUGUAAUAAU [T''-M-T'-T-MS2] | 58.7 nM | 101 nM | 90.1 nM |  | 
9 | AAGAUAAGUACUGAUACCAGAGACAUGAGGAUCACCCAUGUCAAAUAAUAAUACCUCAGACUCCCUUGGCAGCAGGAUAAAUGAG [Exclusion Theophylline B GF1] | 10.9 nM | 19.9 nM | 19.2 nM | 11.7 nM | 12.1 nM
10 | AAGGACAUGAGGAUCACCCAUGUAGAGGAGCGAGGACCGGUACGGCCGCCACUCGGUGACAUUCGAUAAUGCCGAAUAAGACAUC [theeternabot_sameState_MS2_Trp_A_47] | 26.8 nM | 33.2 nM | 24.6 nM |  | 
11 | AAGGGACAUGAGGAUCACCCAUGUACCGAAGGAGCGGCAGAGAUGCCAGGUAGGUCGCGGUACUUGCCGGGUCAUUCAUGCAAAA [Teanbe] | 16.4 nM | 23.5 nM | 21.9 nM | 18.8 nM | 21.8 nM
12 | AAGGGAGAGUCAGAUACCAGAGUAAGAUGGCAUGGUAAUUACAUGAGGAUCACCCAUGUAUUCCCUUGGCAGCUGACCCUACGUU [Exclusion Theophylline B GF 19] | 17.6 nM | 16.7 nM | 16.6 nM | 14.1 nM | 12.8 nM
13 | AAUAACAUGAGGAUCACCCAUGUAAAAGAUACCAGAUGCAUGAUGAUCCCUUGGCAGCUUAAAACGCGAUUGGAAACAAUCGCGA [Mat - Same State Theophlline A - Mod of Eli - D13] | 46.1 nM | 93.4 nM |  |  | 30.8 nM
14 | AAUAACAUGAGGAUCACCCAUGUAAGUAAACGAGGACCGGUACGGCCGCCACUCGAAUAAAUAAAGUACCGGUAAGAUCCAUAGA [Default title] | 17.9 nM | 25.9 nM | 22.5 nM |  | 
15 | AAUAUAAGUGUAAUUAUAUUUAUAUCUGAUACCAGACUCUCAUGUGUCCCUUGGCAGCAGUUACAUGAGGAUCACCCAUGUAUUA [JR_Nu_SSTheophyA_Sub025] | 30.6 nM | 67.6 nM |  |  | 73.7 nM
16 | AAUAUAAUAGACUCGUUUUAGUAUUUGGAACGAGGACCGGUACGGCCGCCACUCGUGAUUUACAUGAGGAUCACCCAUGUUAGCA [JR_SSTryptoA_Sub003] | 15.5 nM | 18.4 nM | 17.5 nM |  | 
17 | AAUAUAUAGACGGCCGCCACUGGAAUUAAUACAUGAGGAUCACCCAUGUGAAGAGGAUAAUAACACAGGACCGGGUCUUCAUGUA [SS Tryp B Tesla 1.2] | 68.5 nM | 137 nM | 452 nM | 37.4 nM | 138 nM
18 | AAUCGUAAGGCGGCCGCCACUACACAUGAGGAUCACCCAUGUCUCGCAGGCUUGCGUUGGGUUAGUAGGACCGGGCCAGUAAUAA [Exclusion - Tryptophan B (Freestyle 15)] | 25.8 nM | 43.2 nM | 37 nM | 32.1 nM | 34.5 nM
19 | AAUGUAUGGCACAUGAGGAUCACCCAUGUGCGAGGACCGGUACGGCCGCCACUCGGUCGUGGGUUCUUAUUACUAUACAUUAAUG [XTryp A #14] | 11.4 nM | 12.8 nM | 11.6 nM |  | 
